Laboratory results taken from patent US20200079833A1 (AstraZeneca / MedImmune, published 2020).
Starred links: 1 amine or outer side, 2 acyl side, 3 side chain; linkers in the order of their positions; H or OH if unused. Non-standard residues stand in square brackets, D forms with d. Groups on a side chain read outwards from the residue. Primed or numbered codes have the meaning given here. No end group written: not given here. *: point of attachment. γGlu = O=C(O)[C@H](CCC(=O)[*:2])N[*:1]; Stearoyl = CCCCCCCCCCCCCCCCCC(=O)*; Palmitoyl = CCCCCCCCCCCCCCCC(=O)*; αMeF = C[C@](N)(Cc1ccccc1)C(=O)O; αMeK = C[C@](N)(CCCCN)C(=O)O; αMeS = C[C@](N)(CO)C(=O)O; PEG2′ = not defined here; Aib = CC(C)(N)C(=O)O; Ahx = NCCCCCC(=O)O

B1: SEQ ID NO 151 (peptide)
peptide: H[Aib]EGS[αMeF]TSDV[αMeS]S[αMeF]LEGEAAK([Ahx-Ahx-Ahx-Stearoyl])E[αMeF]IA[αMeF]VV[αMeK]GG-NH2
modifications: N-terminus assumed
SMILES: CCCCCCCCCCCCCCCCCC(=O)NCCCCCC(=O)NCCCCCC(=O)NCCCCCC(=O)NCCCC[C@H](NC(=O)[C@H](C)NC(=O)[C@H](C)NC(=O)[C@H](CCC(=O)O)NC(=O)CNC(=O)[C@H](CCC(=O)O)NC(=O)[C@H](CC(C)C)NC(=O)[C@](C)(Cc1ccccc1)NC(=O)[C@H](CO)NC(=O)[C@](C)(CO)NC(=O)[C@@H](NC(=O)[C@H](CC(=O)O)NC(=O)[C@H](CO)NC(=O)[C@@H](NC(=O)[C@](C)(Cc1ccccc1)NC(=O)[C@H](CO)NC(=O)CNC(=O)[C@H](CCC(=O)O)NC(=O)C(C)(C)NC(=O)[C@@H](N)Cc1c[nH]cn1)[C@@H](C)O)C(C)C)C(=O)N[C@@H](CCC(=O)O)C(=O)N[C@@](C)(Cc1ccccc1)C(=O)N[C@H](C(=O)N[C@@H](C)C(=O)N[C@@](C)(Cc1ccccc1)C(=O)N[C@H](C(=O)N[C@H](C(=O)N[C@@](C)(CCCCN)C(=O)NCC(=O)NCC(N)=O)C(C)C)C(C)C)[C@@H](C)CC
B2: SEQ ID NO 152 (peptide)
peptide: H[Aib]EGS[αMeF]TSDV[αMeS]S[αMeF]LEGEAAK([PEG2′-Stearoyl])E[αMeF]IA[αMeF]VV[αMeK]GG-NH2
B3: SEQ ID NO 79 (peptide)
peptide: H[Aib]EGS[αMeF]TSDV[αMeS]S[αMeF]LEGEAA[αMeK]K([γGlu-Palmitoyl])[αMeF]IA[αMeF]VV[αMeK]GG-NH2
modifications: N-terminus assumed
SMILES: CCCCCCCCCCCCCCCC(=O)N[C@@H](CCC(=O)NCCCC[C@H](NC(=O)[C@](C)(CCCCN)NC(=O)[C@H](C)NC(=O)[C@H](C)NC(=O)[C@H](CCC(=O)O)NC(=O)CNC(=O)[C@H](CCC(=O)O)NC(=O)[C@H](CC(C)C)NC(=O)[C@](C)(Cc1ccccc1)NC(=O)[C@H](CO)NC(=O)[C@](C)(CO)NC(=O)[C@@H](NC(=O)[C@H](CC(=O)O)NC(=O)[C@H](CO)NC(=O)[C@@H](NC(=O)[C@](C)(Cc1ccccc1)NC(=O)[C@H](CO)NC(=O)CNC(=O)[C@H](CCC(=O)O)NC(=O)C(C)(C)NC(=O)[C@@H](N)Cc1c[nH]cn1)[C@@H](C)O)C(C)C)C(=O)N[C@@](C)(Cc1ccccc1)C(=O)N[C@H](C(=O)N[C@@H](C)C(=O)N[C@@](C)(Cc1ccccc1)C(=O)N[C@H](C(=O)N[C@H](C(=O)N[C@@](C)(CCCCN)C(=O)NCC(=O)NCC(N)=O)C(C)C)C(C)C)[C@@H](C)CC)C(=O)O
B4: SEQ ID NO 149 (peptide)
peptide: H[Aib]EGS[αMeF]TSDV[αMeS]S[αMeF]LEGEAAK([Ahx-Stearoyl])E[αMeF]IA[αMeF]VV[αMeK]GG-NH2
modifications: N-terminus assumed
SMILES: CCCCCCCCCCCCCCCCCC(=O)NCCCCCC(=O)NCCCC[C@H](NC(=O)[C@H](C)NC(=O)[C@H](C)NC(=O)[C@H](CCC(=O)O)NC(=O)CNC(=O)[C@H](CCC(=O)O)NC(=O)[C@H](CC(C)C)NC(=O)[C@](C)(Cc1ccccc1)NC(=O)[C@H](CO)NC(=O)[C@](C)(CO)NC(=O)[C@@H](NC(=O)[C@H](CC(=O)O)NC(=O)[C@H](CO)NC(=O)[C@@H](NC(=O)[C@](C)(Cc1ccccc1)NC(=O)[C@H](CO)NC(=O)CNC(=O)[C@H](CCC(=O)O)NC(=O)C(C)(C)NC(=O)[C@@H](N)Cc1c[nH]cn1)[C@@H](C)O)C(C)C)C(=O)N[C@@H](CCC(=O)O)C(=O)N[C@@](C)(Cc1ccccc1)C(=O)N[C@H](C(=O)N[C@@H](C)C(=O)N[C@@](C)(Cc1ccccc1)C(=O)N[C@H](C(=O)N[C@H](C(=O)N[C@@](C)(CCCCN)C(=O)NCC(=O)NCC(N)=O)C(C)C)C(C)C)[C@@H](C)CC
B5: SEQ ID NO 80 (peptide)
peptide: H[Aib]EGS[αMeF]TSDV[αMeS]S[αMeF]LEGEAAK([γGlu-Palmitoyl])E[αMeF]IA[αMeF]VV[αMeK]GG-NH2
modifications: N-terminus assumed
SMILES: CCCCCCCCCCCCCCCC(=O)N[C@@H](CCC(=O)NCCCC[C@H](NC(=O)[C@H](C)NC(=O)[C@H](C)NC(=O)[C@H](CCC(=O)O)NC(=O)CNC(=O)[C@H](CCC(=O)O)NC(=O)[C@H](CC(C)C)NC(=O)[C@](C)(Cc1ccccc1)NC(=O)[C@H](CO)NC(=O)[C@](C)(CO)NC(=O)[C@@H](NC(=O)[C@H](CC(=O)O)NC(=O)[C@H](CO)NC(=O)[C@@H](NC(=O)[C@](C)(Cc1ccccc1)NC(=O)[C@H](CO)NC(=O)CNC(=O)[C@H](CCC(=O)O)NC(=O)C(C)(C)NC(=O)[C@@H](N)Cc1c[nH]cn1)[C@@H](C)O)C(C)C)C(=O)N[C@@H](CCC(=O)O)C(=O)N[C@@](C)(Cc1ccccc1)C(=O)N[C@H](C(=O)N[C@@H](C)C(=O)N[C@@](C)(Cc1ccccc1)C(=O)N[C@H](C(=O)N[C@H](C(=O)N[C@@](C)(CCCCN)C(=O)NCC(=O)NCC(N)=O)C(C)C)C(C)C)[C@@H](C)CC)C(=O)O
B6: SEQ ID NO 78 (peptide)
peptide: H[Aib]EGS[αMeF]TSDV[αMeS]S[αMeF]LEGEAA[αMeK]EK([γGlu-Palmitoyl])IA[αMeF]VV[αMeK]GG-NH2
modifications: N-terminus assumed
SMILES: CCCCCCCCCCCCCCCC(=O)N[C@@H](CCC(=O)NCCCC[C@H](NC(=O)[C@H](CCC(=O)O)NC(=O)[C@](C)(CCCCN)NC(=O)[C@H](C)NC(=O)[C@H](C)NC(=O)[C@H](CCC(=O)O)NC(=O)CNC(=O)[C@H](CCC(=O)O)NC(=O)[C@H](CC(C)C)NC(=O)[C@](C)(Cc1ccccc1)NC(=O)[C@H](CO)NC(=O)[C@](C)(CO)NC(=O)[C@@H](NC(=O)[C@H](CC(=O)O)NC(=O)[C@H](CO)NC(=O)[C@@H](NC(=O)[C@](C)(Cc1ccccc1)NC(=O)[C@H](CO)NC(=O)CNC(=O)[C@H](CCC(=O)O)NC(=O)C(C)(C)NC(=O)[C@@H](N)Cc1c[nH]cn1)[C@@H](C)O)C(C)C)C(=O)N[C@H](C(=O)N[C@@H](C)C(=O)N[C@@](C)(Cc1ccccc1)C(=O)N[C@H](C(=O)N[C@H](C(=O)N[C@@](C)(CCCCN)C(=O)NCC(=O)NCC(N)=O)C(C)C)C(C)C)[C@@H](C)CC)C(=O)O
B7: SEQ ID NO 150 (peptide)
peptide: H[Aib]EGS[αMeF]TSDV[αMeS]S[αMeF]LEGEAAK([Ahx-Ahx-Stearoyl])E[αMeF]IA[αMeF]VV[αMeK]GG-NH2
modifications: N-terminus assumed
SMILES: CCCCCCCCCCCCCCCCCC(=O)NCCCCCC(=O)NCCCCCC(=O)NCCCC[C@H](NC(=O)[C@H](C)NC(=O)[C@H](C)NC(=O)[C@H](CCC(=O)O)NC(=O)CNC(=O)[C@H](CCC(=O)O)NC(=O)[C@H](CC(C)C)NC(=O)[C@](C)(Cc1ccccc1)NC(=O)[C@H](CO)NC(=O)[C@](C)(CO)NC(=O)[C@@H](NC(=O)[C@H](CC(=O)O)NC(=O)[C@H](CO)NC(=O)[C@@H](NC(=O)[C@](C)(Cc1ccccc1)NC(=O)[C@H](CO)NC(=O)CNC(=O)[C@H](CCC(=O)O)NC(=O)C(C)(C)NC(=O)[C@@H](N)Cc1c[nH]cn1)[C@@H](C)O)C(C)C)C(=O)N[C@@H](CCC(=O)O)C(=O)N[C@@](C)(Cc1ccccc1)C(=O)N[C@H](C(=O)N[C@@H](C)C(=O)N[C@@](C)(Cc1ccccc1)C(=O)N[C@H](C(=O)N[C@H](C(=O)N[C@@](C)(CCCCN)C(=O)NCC(=O)NCC(N)=O)C(C)C)C(C)C)[C@@H](C)CC

These binders were tested against T1, glucose-dependent insulinotropic peptide (gastric inhibitory polypeptide) receptor (GIPR) (human, UniProt P48546 22-466) (assay: cell-based or functional assay).
T1 sequence (looked up): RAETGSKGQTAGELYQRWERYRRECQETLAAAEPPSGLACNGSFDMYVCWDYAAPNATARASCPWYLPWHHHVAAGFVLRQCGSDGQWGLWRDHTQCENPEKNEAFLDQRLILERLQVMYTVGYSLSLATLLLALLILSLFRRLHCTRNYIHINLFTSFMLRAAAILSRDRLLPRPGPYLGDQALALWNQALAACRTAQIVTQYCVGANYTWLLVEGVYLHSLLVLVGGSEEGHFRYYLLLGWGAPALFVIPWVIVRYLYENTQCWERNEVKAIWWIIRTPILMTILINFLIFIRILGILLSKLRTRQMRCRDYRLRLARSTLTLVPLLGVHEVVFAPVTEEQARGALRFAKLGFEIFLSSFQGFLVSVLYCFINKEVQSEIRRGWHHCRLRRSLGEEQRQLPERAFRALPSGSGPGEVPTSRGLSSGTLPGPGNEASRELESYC

Row | Binder | cAMP Primary assay EC50 GIP-R | cAMP Primary assay EC50 GIP-R (2nd)
1 | B1 | 26 nM | 26 nM
2 | B2 | 28 nM | 28 nM
3 | B3 | 28 nM | 28 nM
4 | B4 | 28 nM | 28 nM
5 | B5 | 28 nM | 28 nM
6 | B6 | 28 nM | 28 nM
7 | B7 | 27 nM | 27 nM

The binders below were run against GLP-1 receptor (GLP-1R) (human, UniProt P43220 24-463) (assay: cell-based or functional assay).

Row | Binder | cAMP Mean pM GLP-1R | cAMP Primary assay EC50 GLP-1R n1 | cAMP Primary assay EC50 GLP-1R n2
8 | B1 | 18.2 pM | 0.022 nM | 0.015 nM
9 | B2 | 34.7 pM | 0.039 nM | 0.031 nM
10 | B3 | 3.1 pM | 0.0039 nM | 0.0023 nM
11 | B4 | 66.2 pM | 0.081 nM | 0.051 nM
12 | B5 | 24 pM | 0.031 nM | 0.017 nM
13 | B6 | 14 pM | 0.018 nM | 0.0093 nM
14 | B7 | 25.4 pM | 0.028 nM | 0.022 nM

These binders were tested against glucagon receptor (GCGR) (human, UniProt P47871 26-477) (assay: cell-based or functional assay).
glucagon receptor (GCGR), sequence (P47871 26-477): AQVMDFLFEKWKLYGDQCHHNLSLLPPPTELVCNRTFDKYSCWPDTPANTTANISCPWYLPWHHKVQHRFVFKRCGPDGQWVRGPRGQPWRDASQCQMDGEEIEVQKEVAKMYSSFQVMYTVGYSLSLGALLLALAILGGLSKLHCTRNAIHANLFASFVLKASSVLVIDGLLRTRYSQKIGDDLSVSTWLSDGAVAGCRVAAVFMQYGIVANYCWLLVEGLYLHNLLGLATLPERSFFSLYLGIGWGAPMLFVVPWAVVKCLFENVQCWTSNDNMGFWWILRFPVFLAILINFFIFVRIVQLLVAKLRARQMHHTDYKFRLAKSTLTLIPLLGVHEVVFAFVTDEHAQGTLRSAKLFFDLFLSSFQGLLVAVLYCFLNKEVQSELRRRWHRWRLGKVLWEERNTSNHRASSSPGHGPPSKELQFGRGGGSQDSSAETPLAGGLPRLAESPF

Row | Binder | cAMP Primary assay EC50 Gluc-R | cAMP Primary assay EC50 Gluc-R (2nd)
15 | B1 | 26 nM | 26 nM
16 | B2 | 28 nM | 28 nM
17 | B3 | 28 nM | 28 nM
18 | B4 | 28 nM | 28 nM
19 | B5 | 28 nM | 28 nM
20 | B6 | 28 nM | 28 nM
21 | B7 | 27 nM | 27 nM
